Reference: PMC5282575, “The crystal structure of the Sgt1-Skp1 complex: the link between Hsp90 and both SCF E3 ubiquitin ligases and kinetochores” (Scientific Reports, 2017)
Residue numbers refer to the chain shown, from its start. One block for each molecule: values may come before it.

B1: Skp1∆1 (Skp1 with residues 65-74 deleted) (natural protein, S. cerevisiae, UniProt P52286 1-194, looked up)
chain: MVTSNVVLVSGEGERFTVDKKIAERSLLLKNYLNDMHDSNLQNNSDSESDSDSETNHKSKDNNNIVMPVPNVRSSVLQKVIEWAEHHRDSNFPDEDDDDSRKSAPVDSWDREFLKVDQEMLYEIILAANYLNIKPLLDAGCKVVAEMIRGRSPEEIRRTFNIVNDFTPEEEAAIRRENEWAEDR
notes: Skp1, S. cerevisiae, in the context of the full-length protein; the LCR (36-64) is retained, residues 65-74 are deleted; also called Skp1Δ1; Skp1d1; source: E. coli, purified (anion exchange, gel filtration)
B2: Sgt1 TPR domain construct (Sgt1TPR, residues 1-150) (domain or fragment, S. cerevisiae, UniProt Q08446 1-150, looked up)
chain: MPVEKDLKTAYKALYDEKEPLKALHLYDEILKGSPTNLTALIFKAACLEKLYFGFSDWHSDATMENAKELLDKALMTAEGRGDRSKIGLVNFRYFVHFFNIKDYELAQSYFKKAKNLGYVDDTLPLWEDRLETKLNKKNKKQKDSTNKHT
notes: Sgt1, S. cerevisiae, TPR domain, residues 1-150, untagged, cloned in MCSII of pColA-Duet; Treated as a dimer in the ITC fit; forms concentration-dependent trimers; three copies in the asymmetric unit; SeMet-Sgt1TPR was used for the SAD data set; source: E. coli T7 Express LysY/Iq, purified (cation exchange, gel filtration)
B3: full-length Sgt1 (untagged), Saccharomyces cerevisiae (natural protein, S. cerevisiae, UniProt Q08446 1-395, looked up)
chain: MPVEKDLKTAYKALYDEKEPLKALHLYDEILKGSPTNLTALIFKAACLEKLYFGFSDWHSDATMENAKELLDKALMTAEGRGDRSKIGLVNFRYFVHFFNIKDYELAQSYFKKAKNLGYVDDTLPLWEDRLETKLNKKNKKQKDSTNKHTIKPVESIENRGDNNSSHSPISPLKIETAPQESPKFKIDWYQSSTSVTISLFTVNLPESKEQVNIYISPNDRRTLSISYQVPKSGSEFQYNAKLSHEVDPKAVSLKIFPKKLEITLSKIDSTQWKKLEEDILTESSRLSDEGKNSDSATRLLSAETASKERLSYPSSSKKKIDWSKLDIDEEADEEAGSADSFFQKLYAGADPDTKRAMMKSFIESNGTALSTDWEDVSKGTVKTSPPEGMEPKHW
notes: Sgt1, S. cerevisiae, full length, untagged, cloned in MCSII of pColA-Duet; Dimer at working concentrations by SV-AUC and native MS, with minor monomer and trimer; also called Sgt1 FL; wt; source: E. coli BL21 Star (DE3), purified (cation exchange, gel filtration)
B4: His6-tagged full-length Sgt1 D61R (natural protein, S. cerevisiae, UniProt Q08446 1-395, looked up)
chain: B3 chain with D61R
notes: Sgt1, S. cerevisiae, full length, in pET28a, Asp61 to Arg; source: E. coli T7 Express LysY/Iq, purified (HisTrap FF, gel filtration); not shown: His6, N-terminal, kept

Legend:
[1] = target: full-length Sgt1 and Sgt1TPR (S. cerevisiae); assay: ITC; VP-ITC, 25 °C, 20 mM HEPES pH 7.0, 150 mM NaCl, 1 mM β-mercaptoethanol; 130-160 μM Skp1 injected into 6-13 μM Sgt1 dimer; single site model assuming dimeric Sgt1
[2] = target: B3; assay: as above; conditions: both partners purified
[3] = target: the molecule itself; assay: AUC; sedimentation velocity, 20 °C, absorbance at 280 nm, continuous c(s) fit; Sgt1 at 4.5-22.3 μM monomer (His6-tagged WT and H59A at 11.2 μM)
[4] = target: Skp1∆1 (Skp1 with residues 65-74 deleted) (S. cerevisiae, UniProt P52286 1-194, residues 65–74 are deleted); assay: ITC
[5] = target: the molecule itself; assay: native MS; nano-electrospray, samples exchanged into 150 mM ammonium acetate pH 7; 4.5, 11.2 and 22.3 μM; spectra deconvoluted with Amphitrite

Kd [1]: 600 to 700 nM
Molecule: full-length Skp1 (untagged), Saccharomyces cerevisiae (from UniProt P52286 1-194) (natural protein)

Molecule: B1
binding result [2]: binds

Molecule: B2
stoichiometry N [3]: 3

Molecule: B3
Kd [4]: 3900 nM
stoichiometry N [3]: 2

Molecule: B4
stoichiometry N [5]: 2
